Values of other authors, collected in publication PMC3471383.

Biological target: FcγRI (Homo sapiens) (UniProt P12314)
UniProt P12314, sequence (P12314 16-292): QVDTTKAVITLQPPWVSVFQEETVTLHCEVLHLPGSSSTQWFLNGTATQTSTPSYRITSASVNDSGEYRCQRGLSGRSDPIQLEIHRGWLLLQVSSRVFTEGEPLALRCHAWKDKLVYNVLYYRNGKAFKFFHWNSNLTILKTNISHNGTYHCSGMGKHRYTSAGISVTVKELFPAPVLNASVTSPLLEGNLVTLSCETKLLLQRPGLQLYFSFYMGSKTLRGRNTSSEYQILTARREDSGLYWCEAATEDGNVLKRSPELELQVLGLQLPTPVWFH

Kd: 0.5 µM
Substance: SAP (from UniProt P02743)
